The results in this text go back to US20180230218A1.

Positions count from the first letter of the chain named.

To fix the notation:
B1: hucMet22Gv2.2 (antibody, V domains shown)
VH: QVQLVQSGAEVKKPGASVKVSCKASGYTFTDYNMDWVRQAPGQRLEWIGDLNPNNGATIYNQKFKGRATLTVDMSASTAYMELSSLRSEDTAVYYCARGNYYGNYYYLMDYWGQGTSVTVSS
VL: DIQMTQSPSSLSASVGDRVTITCRASENIYSTLAWYQQKPGKAPKLLVYAATNLADGVPSRFSGSGSGTDYTLTISSLQPEDFATYYCQHFWGTPYTFGQGTKVEIKR
B2: hu247.22.2-SMCC-DM1 (antibody, human IgG1, kappa, V domains shown)
VH: EVQLVQSGAEVVKPGASVKIPCKASGYTFTDYNMDWVRQSPGKSLEWIGDLNPNNGATIYNEKFQGKATLTVDTSSSTAYMELRSLTSEDTAVYYCARGNYYGNYYYLMDYWGQGTSVTVSS
VL: DIQMTQSPSSLSVSVGERVTITCRASENIYSTLAWYQQKPGKSPKLLVYAATNLADGVPSRFSGSGSGTEYSLKINSLQPDDFGSYYCQHFWGTPYTFGGGTKLEIKR
modifications: DM1 linked through SMCC, average of 3-4 DM1 molecules per antibody; sites (heavy or light chain) not stated
B3: hu247.22.2-SPDB-DM4 (antibody, human IgG1, kappa, V domains shown)
VH: B2 VH
VL: B2 VL
modifications: DM4 linked through SPDB; number and sites not stated for this conjugate
B4: hu247.22.2 (antibody, human IgG1, kappa, V domains shown)
VH: B2 VH
VL: B2 VL
B5: hucMet27v1.2 (antibody, human IgG1, kappa, V domains shown)
VH: EVQLVESGGGLVQPGGSLRLSCAASGFTFSSYDMSWVRQTPGKGLELVATINSNGVSIYYPDSVKGRFTISRDIAKNTLYLQMSSLRAEDTAMYYCAREEITTEMDYWGQGTSVTVSS
VL: DIVLTQSPASLAVSPGQRATISCRASESVDSYGNSFIHWYQQKPGQPPKLLIYRASNLESGIPARFSGSGSRTDFTLTINPVEANDVATYYCQQSNEEPLTFGGGTKLELKR
B6: hucMET27Gv2.1 (antibody, human IgG1, kappa, V domains shown)
VH: B5 VH with T40A, L47W, A49S, I74N, T78S, S84N, M93V, S113L
VL: EIVLTQSPATLSLSPGERATLSCRASESVDSYGNSFIHWYQQKPGQAPRLLIYRASNLESGIPARFSGSGSRTDFTLTISSLEPEDFAVYYCQQSNEEPLTFGQGTKVELKR
B7: hucMET27Gv1.1 (antibody, human IgG1, kappa, V domains shown)
VH: B5 VH with T40A, L47W, A49S, I74N, T78S, S84N, M93V, S113L
VL: B6 VL with R72G
B8: hucMet27Gv1.2 (antibody, human IgG1, kappa, V domains shown)
VH: B5 VH with T40A, T78S, S84N, M93V, S113L
VL: B6 VL with R72G
B9: hucMET27Gv2.2 (antibody, human IgG1, kappa, V domains shown)
VH: B5 VH with T40A, T78S, S84N, M93V, S113L
VL: B6 VL
B10: hucMet22Gv2.2-sSPDB-DM4 (antibody, human IgG1, kappa, V domains shown)
VH: B1 VH
VL: B1 VL
modifications: lysines linked to sSPDB-DM4, on average 3-4 DM4 per antibody
B11: hucMet22Gv2.2-DGN549 (antibody, human IgG1, kappa, V domains shown)
VH: B1 VH
VL: B1 VL
modifications: DGN549 conjugate; linkage site not stated for this antibody
B12: hucMet27Gv1.2-sSPDB-DM4 (antibody, human IgG1, kappa, V domains shown)
VH: B5 VH with T40A, T78S, S84N, M93V, S113L
VL: B6 VL with R72G
modifications: sSPDB-DM4 conjugate; preparation of this one not described
B13: hucMet27Gv1.2-DGN549 (antibody, human IgG1, kappa, V domains shown)
VH: B5 VH with T40A, T78S, S84N, M93V, S113L
VL: B6 VL with R72G
modifications: DGN549 conjugate; linkage site not stated for this antibody
B14: hucMet27v1.2-DGN549 (antibody, human IgG1, kappa, V domains shown)
VH: B5 VH
VL: B5 VL
modifications: lysine-linked DGN549
B15: hucMet27v1.2-sSPDB-DM4 (antibody, human IgG1, kappa, V domains shown)
VH: B5 VH
VL: B5 VL
modifications: lysines linked to sSPDB-DM4, on average 3-4 DM4 per antibody

human cMET (MET, c-Met, HGF receptor) on cells (human), sequence (P08581 25-1390): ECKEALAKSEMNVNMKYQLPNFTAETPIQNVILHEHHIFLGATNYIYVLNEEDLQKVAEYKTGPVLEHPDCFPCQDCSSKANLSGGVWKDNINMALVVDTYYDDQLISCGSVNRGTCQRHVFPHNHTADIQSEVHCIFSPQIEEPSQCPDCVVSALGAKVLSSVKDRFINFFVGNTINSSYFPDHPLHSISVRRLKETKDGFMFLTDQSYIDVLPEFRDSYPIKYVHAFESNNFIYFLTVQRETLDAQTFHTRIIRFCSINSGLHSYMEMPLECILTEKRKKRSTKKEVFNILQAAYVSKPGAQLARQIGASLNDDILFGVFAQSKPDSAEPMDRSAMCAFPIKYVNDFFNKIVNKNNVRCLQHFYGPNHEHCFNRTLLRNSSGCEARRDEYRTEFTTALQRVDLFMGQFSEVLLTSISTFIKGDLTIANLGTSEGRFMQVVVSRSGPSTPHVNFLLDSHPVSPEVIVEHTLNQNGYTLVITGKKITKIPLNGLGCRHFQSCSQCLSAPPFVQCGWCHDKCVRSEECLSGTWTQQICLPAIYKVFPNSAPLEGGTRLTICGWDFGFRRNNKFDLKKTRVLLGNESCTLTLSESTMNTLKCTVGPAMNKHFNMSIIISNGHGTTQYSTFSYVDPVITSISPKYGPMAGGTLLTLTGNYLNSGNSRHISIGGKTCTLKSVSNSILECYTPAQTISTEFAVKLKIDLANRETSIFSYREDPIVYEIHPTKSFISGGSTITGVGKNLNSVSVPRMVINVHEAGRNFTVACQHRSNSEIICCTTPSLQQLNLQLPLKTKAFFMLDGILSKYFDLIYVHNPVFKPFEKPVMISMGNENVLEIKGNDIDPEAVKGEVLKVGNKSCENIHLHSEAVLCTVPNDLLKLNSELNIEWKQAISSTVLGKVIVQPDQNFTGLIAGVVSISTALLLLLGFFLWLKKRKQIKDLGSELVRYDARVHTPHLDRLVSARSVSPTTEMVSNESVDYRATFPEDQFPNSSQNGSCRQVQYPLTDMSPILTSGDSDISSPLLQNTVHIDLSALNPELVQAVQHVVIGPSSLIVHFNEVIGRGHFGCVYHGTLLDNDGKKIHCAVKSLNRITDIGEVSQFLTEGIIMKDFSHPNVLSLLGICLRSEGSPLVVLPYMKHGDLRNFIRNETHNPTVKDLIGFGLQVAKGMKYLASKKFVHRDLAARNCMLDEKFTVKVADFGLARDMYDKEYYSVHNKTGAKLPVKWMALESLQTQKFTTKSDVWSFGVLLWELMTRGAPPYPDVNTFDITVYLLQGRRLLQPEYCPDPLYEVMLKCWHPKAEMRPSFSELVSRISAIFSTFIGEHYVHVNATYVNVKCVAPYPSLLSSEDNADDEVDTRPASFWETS

One experiment concerns the target human cMET (MET, c-Met, HGF receptor) on cells (human) (UniProt P08581). The experiment in a line: cell-based or functional assay.
Consider B1, for which the percent induction of NCI-H441 cell growth (WST-8), normalised to 100 ng/mL HGF came out at 72%.

For the molecule B2, the in vitro cytotoxicity in MET-expressing MKN45 cells, EC50 was 0.07 nM.

The target is the same in a further experiment. The experiment in a line: flow cytometry on MET-expressing BxPC3 cells, FITC anti-human IgG; 'affinity' (apparent). (In general: A flow cytometer gives signals particle by particle.)
For the molecule B2, the Kd came out at 0.08 nM. With B3, the Kd is 0.07 nM. Turning to B4, the Kd amounted to 0.09 nM.

For a further experiment the target is unchanged. The experiment in a line: flow cytometry (FACS), direct binding to NCI-H441 cells expressing human cMET.
In general, EC50 (read off the curve) refers to the concentration needed to bring the measured effect to its halfway point. On to B5, for which the EC50 (read off the curve) came out at 0.4 nM.

In the case of B6, the EC50 (read off the curve) is 0.2 nM. Consider B7, for which the EC50 (read off the curve) was determined as 0.2 nM. On the same count and under the same terms, with B8 the figure was 0.2 nM; with B9, 0.2 nM.

The target is the same in the next experiment. The experiment in a line: flow cytometry (FACS) on EBC-1 cells endogenously expressing human cMet, fluorescent secondary antibody.
B1 had an EC50 (read off the curve) of 0.1 nM. Turning to B10, the EC50 (read off the curve) was 0.2 nM. Same read-out and setting: then B11, with 0.2 nM; and B5, with 0.3 nM; and B12, with 0.5 nM. The same measure, in the same setting: with B13 the figure was 0.4 nM; with B14, 0.4 nM; with B8, 0.5 nM. For B15, the EC50 (read off the curve) is 0.2 nM.
